Measured values from patent publication US20210002363A1 (PHANES THERAPEUTICS, published 2021).
Positions count from the first letter of the chain named. Blank lines part the entries; values can stand above or below the binder they belong to.

Key:
[1] = target: T1, FOLR1 on SK-OV-3 cells (ATCC HTB-77) (Homo sapiens (Human), UniProt P15328 25-234); test: FACS on SK-OV-3 cells; MFI
T1 construct: Endogenous FOLR1 of the cell line; also called cells that are known to express FOLR1

[2] = target: T2, Recombinant extracellular domain of human FOLR1 (Novoprotein, Cat#: C784) (human, UniProt P15328 25-233, limits assumed); test: ELISA on plate-coated recombinant human FOLR1 extracellular domain; anti-human IgG-HRP; O.D. 450 nm
T2 construct: Bought reagent; also called recombinant FOLR1; immobilized FOLR1 extracellular domain
T2 sequence (P15328 25-233 limits assumed): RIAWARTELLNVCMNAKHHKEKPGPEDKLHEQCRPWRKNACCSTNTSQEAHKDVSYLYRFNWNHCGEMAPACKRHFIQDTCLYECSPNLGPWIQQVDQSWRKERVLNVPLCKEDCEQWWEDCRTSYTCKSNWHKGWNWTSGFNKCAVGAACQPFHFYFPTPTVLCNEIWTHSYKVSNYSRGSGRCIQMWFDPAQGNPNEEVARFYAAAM
Experimental: The Purified chimeric mAbs were tested in an ELISA assay for their ability to bind to immobilized human FOLR1. Recombinant extracellular domain of human FOLR1 (Novoprotein, Cat#: C784) in carbonate coating buffer was coated on a 96-well plate at room temperature for 1 hour. The plate is blocked by 5% BSA in TBST for 1 hour at room temperature. In each well of an individual plate, mAbs at various concentrations were incubated for 1 hour at room temperature. The plate was washed and the binding to FOLR1 was detected by anti-human IgG conjugated to horseradish peroxidase (hIgG-HRP) (ThermoFisher Scientific, Cat#: H10007) with incubation for 1 hour at room temperature. Then after washing, the ELISA was developed using One-step Detection Solution (ThermoFisher Scientific, Cat#: 34028) and measured as the absorbance at 450 nm.

[3] = target: T2, Recombinant extracellular domain of …; test: ELISA on immobilized FOLR1 extracellular domain; O.D. 450 nm
[4] = target: T1, FOLR1 on SK-OV-3 cells (ATCC HTB-77); test: FACS on SK-OV-3 cells; Alexa Fluor 488 F(ab')2 goat anti-human IgG Fc; MFI
Experimental: To assess the binding of the chimeric anti-FOLR1 mAbs to cells that are known to express FOLR1, SK-OV-3 (ATCC® HTB-77™) cells were plated at 80,000 cells per well on a 96-well non-binding U-bottom plate (Greiner Bio-One, Cat#: 650901). In some experiments, 90,000 cells per well were used. The cells were incubated in 50 μL FACS buffer (HBSS with 0.1% BSA and 0.05% sodium azide) containing mAbs at different concentrations on ice for 15 minutes. After wash, cells were incubated in 50 μL FACS buffer containing 3.5 μg/mL F(ab′)2-Goat anti-Human IgG Fc conjugated to Alexa Fluor® 488 (Invitrogen, Cat#: H10120) on ice for 15 minutes in dark and washed again. Cells were analyzed using an Attune NxT flow cytometer. MFI, mean fluorescence intensity.

[5] = target: T2, Recombinant extracellular domain of …; test: SPR (Biacore 8k), mAb captured on protein A chip, recombinant FOLR1 as analyte, 1:1 model
Experimental: The interaction of the chimeric anti-FOLR1 mAbs and FOLR1 was measured by Surface Plasmon Resonance (SPR) (Biacore 8k, GE Healthcare). Briefly, an anti-FOLR1 mAb was immobilized to a protein A sensor chip (GE Healthcare, Cat#: 29-1275-56) in HBS-P buffer (0.01 M HEPES pH 7.4, 0.15 M NaCl, 0.05% v/v Surfactant P20) with an injection flow rate at […]. The recombinant FOLR1 (Novoprotein, Cat#: C784) at variant concentrations was loaded with the flow rate of 30 μL/min in HBS-P buffer. Following antigen loading, the surface was regenerated with 10 mM glycine-HCl (pH 1.5). Sensor grams were fit with a 1:1 binding model using Biacore 8k evaluation software (GE Healthcare).

[6] = target: T2, Recombinant extracellular domain of …; test: ELISA on immobilized FOLR1 extracellular domain; O.D. 450 nm; remark: listed apart in the source
[7] = target: T2, Recombinant extracellular domain of …; test: as above; remark: listed apart in the source
[8] = target: T2, Recombinant extracellular domain of …; test: as above; remark: listed apart in the source
[9] = target: T1, FOLR1 on SK-OV-3 cells (ATCC HTB-77); test: FACS on SK-OV-3 cells; MFI; remark: listed apart in the source
[10] = target: T2, Recombinant extracellular domain of …; test: ELISA on immobilized FOLR1 extracellular domain; O.D. 450 nm; remark: listed apart in the source
[11] = target: T2, Recombinant extracellular domain of …; test: as above; remark: listed apart in the source
[12] = target: T2, Recombinant extracellular domain of …; test: as above; remark: listed apart in the source
[13] = target: T1, FOLR1 on SK-OV-3 cells (ATCC HTB-77); test: FACS on SK-OV-3 cells; MFI; remark: listed apart in the source
[14] = target: T2, Recombinant extracellular domain of …; test: ELISA on immobilized FOLR1 extracellular domain; O.D. 450 nm; remark: listed apart in the source
[15] = target: T2, Recombinant extracellular domain of …; test: as above; remark: listed apart in the source

T1 sequence (P15328 25-234 limits assumed): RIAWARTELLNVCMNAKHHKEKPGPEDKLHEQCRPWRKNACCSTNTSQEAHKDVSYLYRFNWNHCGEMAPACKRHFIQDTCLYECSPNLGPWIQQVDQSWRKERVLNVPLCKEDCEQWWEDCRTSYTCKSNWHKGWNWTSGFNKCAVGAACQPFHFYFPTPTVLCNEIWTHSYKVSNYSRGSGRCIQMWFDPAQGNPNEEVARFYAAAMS

EC50 (read off the curve) [1]: ~3 nM
B1: F10-H1L3 (antibody, V domains shown)
VH: EVQLVQSGAEVKKPGSSVKVSCKASGYAFSSSWMNWVRQAPGQGLEWIGRIYPGDGYTHYNGMFKGRASLTADKSTSTGYMELSSLRSEDTAVFFCTRHGDFPYWYFDVWGRGTLVTVSP
VL: DIQMTQSPSTLSASVGDRVTITCRASENIDSYLAWYQQKPGRAPKLLVYAATNLAVGVPSRFSGSGSGTEYTLTISSLQSEDFATYYCQHHYSTPPTFGQGTKLEIK
notes: also called humanized F10 mAb H1L3

EC50 (read off the curve) [2]: 0.1 to 0.2 nM
EC50 (read off the curve) [3]: 0.2 to 0.3 nM
EC50 (read off the curve) [4]: ~0.8 nM
Kd [5]: 0.265 nM
EC50 (read off the curve) [6]: 0.2 to 0.3 nM
B2: chimeric anti-FOLR1 mAb F17 (antibody, V domains shown)
VH: DVQLVESGGGLVQPGGSRKLSCAASGFTFSDFGMHWIRQAPERGLEWVAYMSYTPGTFHYADTVKDRFFISRDNAKNTLFLQMTSLRSDDTAMYYCARVHVGTVDYWGQGTSVTVSS
VL: DVVLTQSPATLSVTPGDSVSLSCRASQNINNNLHWFQQKSHESPRLLIKYASQSISGIPSRFSGSGSGTDFTLSINNVETEDFGIYFCQQSNSWPALTFGTGTKVELK
notes: also called Chimeric mAb F17

EC50 (read off the curve) [2]: ~0.1 nM
EC50 (read off the curve) [4]: ~0.4 nM
Kd [5]: 0.352 nM
EC50 (read off the curve) [7]: 0.2 to 0.3 nM
EC50 (read off the curve) [8]: 0.1 to 0.2 nM
B3: chimeric anti-FOLR1 mAb F5 (antibody, V domains shown)
VH: EVQLVESGGELVKPGGSLKLSCAVSGFTFSNYGMSWVRQTPDKRLEWVATISSGGSYTYYPDSVKGRFTISRDNDKNTLYLQMSSLKSEDTAMYYCSTQGSSGYVGYWGQGTTLTVSS
VL: DIQMTQSPSSLSAFLGGKVTITCKASQDITNFIGWYQHKPGKGPRLLISYTSILESGIPSRFSGSGSGRDYSFSISNLEPEDIATYYCLQYYNLWTFGGGTKLEIK
notes: also called Chimeric mAb F5

binding result [9]: binds
binding result [10]: binds
B4: F20-H2L2 (antibody, V domains shown)
VH: QVQLVQSGAEVKKPGSSVKVSCKASGYTFASYYLYWVRQAPGQGLEWIGEINPRSGGTNFNEKFKSRATVTVDASTSTAYMELSSLRSEDTAVYYCSRSGRLRGFYTMDYWGQGTLVTVSS
VL: DIVMTQSPDSLAVSLGERATINCKAGENVGSYVSWYQQKPGQSPKLLIYGASNRYTGVPDRFSGSGSATDFTLTISSLQAEDVAVYYCGQTYRFLTFGQGTKVEIK
notes: also called humanized F20 mAb H2L2

EC50 (read off the curve) [11]: ~0.3 nM
B5: F20-H1L4 (antibody, V domains shown)
VH: B4 VH with A74K
VL: DIQMTQSPSTLSASVGDRVTITCKAGENVGSYVSWYQQKPGKAPKLLIYGASNRYTGVPARFSGSGSATEFTLTISSLQPEDFATYYCGQTYRFLTFGQGTKVEVK
notes: also called humanized F20 mAb H1L4

EC50 (read off the curve) [12]: 0.2 to 0.3 nM
EC50 (read off the curve) [13]: ~1 nM
B6: F20-H3L3 (antibody, V domains shown)
VH: B4 VH with R67K, A74K, S77N
VL: B5 VL with E81D
notes: also called humanized F20 mAb H3L3

binding result [9]: binds
binding result [10]: binds
B7: F20-H2L1 (antibody, V domains shown)
VH: B4 VH
VL: B4 VL with S43P
notes: also called humanized F20 mAb H2L1

EC50 (read off the curve) [10]: ~0.3 nM
B8: F20-H2L3 (antibody, V domains shown)
VH: B4 VH
VL: B5 VL with E81D
notes: also called humanized F20 mAb H2L3

EC50 (read off the curve) [11]: ~0.3 nM
EC50 (read off the curve) [13]: ~1 nM
B9: F20-H3L4 (antibody, V domains shown)
VH: B4 VH with R67K, A74K, S77N
VL: B5 VL
notes: also called humanized F20 mAb H3L4

EC50 (read off the curve) [14]: ~0.4 nM
B10: F5-H4L1 (antibody, V domains shown)
VH: EVQLVESGGGLVQPGGSLRLSCAVSGFTFSNYGMSWVRQAPGKGLEWVATISSGGSYTYYPDSVKGRFTISRDNDKNTLYLQMSSLRAEDTAVYYCSTQGSSGYVGYWGQGTLVTVSS
VL: DIQMTQSPSSVSASVGDRVTITCKASQDITNFIGWYQHKPGKAPKLLISYTSILESGVPSRFSGSGSGRDYTLTISSLQPEDFATYYCLQYYNLWTFGGGTKVEIK
notes: also called humanized F5 mAb H4L1

EC50 (read off the curve) [14]: ~0.4 nM
B11: F5-H4L2 (antibody, V domains shown)
VH: B10 VH
VL: B10 VL with R69T
notes: also called humanized F5 mAb H4L2

EC50 (read off the curve) [6]: 0.1 to 0.2 nM
B12: F17-H1L1 (antibody, V domains shown)
VH: EVQLVETGGGLIQPGGSLRLSCAASGFTFSDFGMHWIRQAPGKGLEWVAYMSYTPGTFHYADTVKDRFTISRDNSKNTLYLQMNSLRAEDTAVYYCARVHVGTVDYWGQGTLVTVSS
VL: EVVLTQSPATLSLSPGERATLSCRASQNINNNLHWFQQKPGQAPRLLIKYASQSISGIPARFSGSGSGTDFTLTISSLEPEDFAVYFCQQSNSWPALTFGQGTKVEIK
notes: also called humanized F17 mAb H1L1

EC50 (read off the curve) [2]: ~0.2 nM
EC50 (read off the curve) [4]: ~0.9 nM
Kd [5]: 0.704 nM
EC50 (read off the curve) [15]: ~0.2 nM
B13: chimeric anti-FOLR1 mAb F10 (antibody, V domains shown)
VH: QVQLQQSGPELVKPGASVKISCKASGYAFSSSWMNWVRQRPGKGLEWIGRIYPGDGYTHYNGMFKGKATLTADKSSSTGYMQLSSLTSEDSAVYFCTRHGDFPYWYFDVWGTGTTVTVSS
VL: DIQMTQSPASLSASVGESVTITCRASENIDSYLAWYQQKQGKSPQLLVYAATNLAVGVPSRFSGSGSGTQYTLKINSLQSEDVARYYCQHHYSTPPTFGGGTKLEIK
notes: also called Chimeric mAb F10
